Earlier results, collected in paper PMC9917443.
Like-named read-outs stand apart in the source and are kept apart here.

Key:
GB1a SD1 [1] = molecular target: GB1a SD1 (UniProt Q9UBS5)
GB1a SD1 [2] = molecular target: GB1a SD1 (UniProt Q9UBS5); remark: listed apart in the source
GB1a SD1 [3] = molecular target: GB1a SD1 (UniProt Q9UBS5); remark: listed apart in the source

Sequence of GB1a SD1 (Q9UBS5 30-96): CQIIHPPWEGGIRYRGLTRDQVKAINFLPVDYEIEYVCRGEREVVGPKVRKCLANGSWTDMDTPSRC
Sequence of sAPP (P05067 18-687): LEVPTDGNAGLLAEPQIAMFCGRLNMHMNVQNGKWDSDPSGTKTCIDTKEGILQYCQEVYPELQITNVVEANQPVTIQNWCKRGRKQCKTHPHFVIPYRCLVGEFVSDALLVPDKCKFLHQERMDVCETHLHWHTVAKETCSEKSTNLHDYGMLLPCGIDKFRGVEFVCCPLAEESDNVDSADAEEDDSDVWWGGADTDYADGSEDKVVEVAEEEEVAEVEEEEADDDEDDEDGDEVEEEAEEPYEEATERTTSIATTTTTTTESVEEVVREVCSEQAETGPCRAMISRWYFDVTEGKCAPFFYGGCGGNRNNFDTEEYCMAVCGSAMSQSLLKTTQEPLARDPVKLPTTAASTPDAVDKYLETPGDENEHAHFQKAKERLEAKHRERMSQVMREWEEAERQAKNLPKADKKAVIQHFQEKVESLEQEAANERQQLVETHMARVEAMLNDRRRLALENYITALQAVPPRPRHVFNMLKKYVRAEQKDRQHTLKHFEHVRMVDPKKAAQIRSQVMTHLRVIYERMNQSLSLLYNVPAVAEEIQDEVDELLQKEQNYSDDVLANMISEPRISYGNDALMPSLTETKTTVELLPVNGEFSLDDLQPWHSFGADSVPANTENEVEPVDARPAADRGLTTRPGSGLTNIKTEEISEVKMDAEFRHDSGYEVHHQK
Sequence of APP (P05067 18-770): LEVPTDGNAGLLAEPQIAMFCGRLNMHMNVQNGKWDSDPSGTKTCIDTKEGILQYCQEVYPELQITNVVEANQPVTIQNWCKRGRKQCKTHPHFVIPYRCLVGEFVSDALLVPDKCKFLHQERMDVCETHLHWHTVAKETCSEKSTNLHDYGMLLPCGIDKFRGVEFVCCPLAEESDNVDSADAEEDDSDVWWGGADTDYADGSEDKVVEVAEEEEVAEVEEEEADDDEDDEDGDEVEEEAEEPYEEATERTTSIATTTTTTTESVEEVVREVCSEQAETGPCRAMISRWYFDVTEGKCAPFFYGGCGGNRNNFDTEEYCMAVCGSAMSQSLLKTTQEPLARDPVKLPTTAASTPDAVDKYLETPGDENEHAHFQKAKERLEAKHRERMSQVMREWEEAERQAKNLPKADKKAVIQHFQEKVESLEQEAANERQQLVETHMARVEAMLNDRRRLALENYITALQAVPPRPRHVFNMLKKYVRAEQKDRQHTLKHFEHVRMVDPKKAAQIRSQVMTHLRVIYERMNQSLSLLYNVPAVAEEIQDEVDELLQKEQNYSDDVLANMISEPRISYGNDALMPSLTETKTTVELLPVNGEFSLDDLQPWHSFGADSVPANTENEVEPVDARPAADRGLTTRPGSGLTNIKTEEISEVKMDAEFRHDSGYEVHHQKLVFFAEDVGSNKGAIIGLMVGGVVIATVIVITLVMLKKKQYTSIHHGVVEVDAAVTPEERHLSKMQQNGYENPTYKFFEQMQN

Substance: APP17 APP17 peptide (from UniProt P05067)
- Kd (GB1a SD1 [1]): 810 nM

Substance: APP (from UniProt P05067)
- Kd (GB1a SD1 [2]): 183 nM

Substance: sAPP (from UniProt P05067)
- Kd (GB1a SD1 [3]): 431 nM
